Experimental data taken from patent US20220195068A1 (TENEOBIO, published 2022).
Positions count from the first letter of the chain named. One block for each binder: values may come before it.

Assays:
[1] = molecular target: T1, human PSMA (Prostate Specific Membrane Antigen, Glutamate Carboxypeptidase II) on cells (human, UniProt Q04609 1-750); experiment: flow cytometry cell binding, PC3-PSMA cells
T1 construct: whole, on cells; the same molecule is used for all four PSMA positive cell lines; the cell line is named under assay; also called cell surface expressed PSMA; FOLH1
T1 sequence (Q04609 whole entry): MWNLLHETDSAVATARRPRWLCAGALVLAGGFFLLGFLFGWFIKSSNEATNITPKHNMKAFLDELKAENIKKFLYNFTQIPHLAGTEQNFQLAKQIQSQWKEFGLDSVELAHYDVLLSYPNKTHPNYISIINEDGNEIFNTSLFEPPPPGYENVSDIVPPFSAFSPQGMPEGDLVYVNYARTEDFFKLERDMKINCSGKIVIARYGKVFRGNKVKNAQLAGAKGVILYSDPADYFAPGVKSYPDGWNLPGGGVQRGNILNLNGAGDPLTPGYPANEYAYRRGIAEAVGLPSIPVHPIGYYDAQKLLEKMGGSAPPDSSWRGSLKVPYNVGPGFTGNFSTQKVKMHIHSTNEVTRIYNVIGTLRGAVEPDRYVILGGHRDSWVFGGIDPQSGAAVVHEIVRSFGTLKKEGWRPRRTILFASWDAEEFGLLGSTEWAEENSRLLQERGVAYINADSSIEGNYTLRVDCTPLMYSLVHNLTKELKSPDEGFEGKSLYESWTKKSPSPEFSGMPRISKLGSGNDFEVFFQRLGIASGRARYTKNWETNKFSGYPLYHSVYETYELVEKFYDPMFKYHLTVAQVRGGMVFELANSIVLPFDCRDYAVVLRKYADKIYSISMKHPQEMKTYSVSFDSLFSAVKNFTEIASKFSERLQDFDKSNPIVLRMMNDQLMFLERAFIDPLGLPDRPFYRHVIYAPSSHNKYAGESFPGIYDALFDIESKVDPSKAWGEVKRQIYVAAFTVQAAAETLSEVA

[2] = molecular target: T1, human PSMA (Prostate Specific Membrane …); experiment: cell-based or functional assay
[3] = molecular target: T1, human PSMA (Prostate Specific Membrane …); experiment: flow cytometry cell binding, 22Rv1 cells
[4] = molecular target: T1, human PSMA (Prostate Specific Membrane …); experiment: flow cytometry cell binding, MDA-PCa-2b cells
[5] = molecular target: T1, human PSMA (Prostate Specific Membrane …); experiment: flow cytometry cell binding, LNCAP cells
[6] = molecular target: T1, human PSMA (Prostate Specific Membrane …); experiment: flow cytometry on LNCaP cells
Experimental: Briefly, 50,000 target cells were stained with a dilution series of purified UniAbs™ for 30 minutes at 4° C. Following incubation, the cells were washed twice with flow cytometry buffer (1X PBS, 1% BSA, 0.1% NaN₃) and stained with goat F(ab')₂ anti-human IgG conjugated to R-phycoerythrin (PE) (Southern Biotech, cat. #2042-09) to detect cell-bound antibodies. After a 20-minute incubation at 4° C., the cells were washed twice with flow cytometry buffer and the mean fluorescence intensity (MFI) was measured by flow cytometry. The MFI of cells stained with secondary antibody alone were used for determination of background signal and binding of each antibody was converted to fold over background. Binding to cynomolgus PSMA positive cells was determined using the same protocol with the following modifications: the target cells were from Freestyle 293-F cells (ThermoFisher R79007) transiently transfected to express the extracellular domain of cynomolgus PSMA. In some experiments EC50 values were calculated using GraphPad Prism 7.

B1: 346181xCD3 monoparatopic PSMAxCD3 bispecific antibody (bispecific antibody, human IgG4 S228P, kappa, F234A L235A)
heavy 1: QLQLQESGPGLVKPSETLSLTCTVSGGSISSSNYFWGWIRQSPGKGLEWIGSIDYSGYTYYNPSLKSRVTISVDTSKNQFSLKLSSVTAADTAVYNCARHKAATADFDYRGQGTLVTVSSESKYGPPCPPCPAPEAAGGPSVFLFPPKPKDTLMISRTPEVTCVVVDVSQEDPEVQFNWYVDGVEVHNAKTKPREEQFNSTYRVVSVLTVLHQDWLNGKEYKCKVSNKGLPSSIEKTISKAKGQPREPQVYTLPPSQEEMTKNQVSLSCAVKGFYPSDIAVEWESNGQPENNYKTTPPVLDSDGSFFLVSRLTVDKSRWQEGNVFSCSVMHEALHNHYTQKSLSLSLGK
heavy 2: EVQLVESGGGLVQPGRSLRLSCAASGFTFDDYAMHWVRQAPGKGLEWVSGISWNSGSIGYADSVKGRFTISRDNAKNSLYLQMNSLRAEDTALYYCAKDSRGYGDYRLGGAYWGQGTLVTVSSASTKGPSVFPLAPCSRSTSESTAALGCLVKDYFPEPVTVSWNSGALTSGVHTFPAVLQSSGLYSLSSVVTVPSSSLGTKTYTCNVDHKPSNTKVDKRVESKYGPPCPPCPAPEAAGGPSVFLFPPKPKDTLMISRTPEVTCVVVDVSQEDPEVQFNWYVDGVEVHNAKTKPREEQFNSTYRVVSVLTVLHQDWLNGKEYKCKVSNKGLPSSIEKTISKAKGQPREPQVYTLPPSQEEMTKNQVSLWCLVKGFYPSDIAVEWESNGQPENNYKTTPPVLDSDGSFFLYSRLTVDKSRWQEGNVFSCSVMHEALHNHYTQKSLSLSLGK
light: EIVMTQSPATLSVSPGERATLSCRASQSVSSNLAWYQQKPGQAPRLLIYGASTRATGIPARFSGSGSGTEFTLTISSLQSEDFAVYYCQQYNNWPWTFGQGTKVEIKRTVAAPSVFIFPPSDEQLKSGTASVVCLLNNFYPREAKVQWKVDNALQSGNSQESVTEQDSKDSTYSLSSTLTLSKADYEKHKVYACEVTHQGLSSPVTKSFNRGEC
notes: three-chain antibody-like molecule; also called monoparatopic molecule
EC50 [1]: 30 nM | IFNγ EC50, 22Rv1 cells [2]: 174 nM | IFNγ EC50, LNCAP cells [2]: 63 nM | IFNγ EC50, MDA-PCa-2b cells [2]: 116 nM | IFNγ EC50, PC3-PSMA cells [2]: 10.1 nM | IL-2 EC50, LNCAP cells [2]: 575 nM | IL-2 EC50, MDA-PCa-2b cells [2]: 38.5 nM | IL-2 EC50, PC3-PSMA cells [2]: 4.1 nM | Kill EC50, 22Rv1 cells, resting T-cells [2]: 52.8 nM | Kill EC50, LNCAP cells, resting T-cells [2]: 14.6 nM | Kill EC50, MDA-PCa-2b cells, resting T-cells [2]: 23.6 nM | Kill EC50, PC3-PSMA cells, resting T-cells [2]: 3.7 nM | EC50 [3]: 58 nM | EC50 [4]: 28 nM | EC50 [5]: 17 nM

B2: anti-PSMA heavy chain antibody clone ID 346172 (antibody, V domains shown)
VH: QLQLQESGPGLVKPSETLSLTCTVSGGSISSSSYYWGWIRQPPGKGLEWIGSIDYSGYTYYNPSLKSRVTISVDTSKNQFSLKLSSVTAADTAVYNCARHKAATADFDYRGQGTLVTVSS
notes: heavy chain-only antibody (UniAb), no light chain
fold over the background MFI signal [6]: 216 fold over background

B3: anti-PSMA heavy chain antibody clone ID 346181 (antibody, V domains shown)
VH: B2 VH with S33N, Y35F, P42S
notes: heavy chain-only antibody (UniAb), no light chain; also called HCAb 346181
fold over the background MFI signal [6]: 264 fold over background

B5: anti-PSMA heavy chain antibody clone ID 326109 (antibody, V domains shown)
VH: B2 VH with S32N, P42S, I50L, D54Y, Y55D, Y58S, Y60H, T70I, V73G, N96Y
notes: as for B2
fold over the background MFI signal [6]: 25 fold over background

B6: anti-PSMA heavy chain antibody clone ID 325920 (antibody, V domains shown)
VH: B2 VH with K66Q
notes: heavy chain-only antibody (UniAb), no light chain; also called Antibody 2
fold over the background MFI signal [6]: 282 fold over background

B7: anti-PSMA heavy chain antibody clone ID 325748 (antibody, V domains shown)
VH: QVQLVESGGGVVQPGRSLRLSCAASGFSFSSYGMHWVRQAPGKGLEGVAVIWYDGSNRYYADSVKGRFTISRDNSKNTLYLQMNSLRAEDTAVYYCAREPRIGYYYESSGYYSLDYRGQGTLVTVSS
notes: as for B2
fold over the background MFI signal [6]: 193 fold over background

B8: anti-PSMA heavy chain antibody clone ID 325932 (antibody, V domains shown)
VH: B7 VH
notes: as for B2
fold over the background MFI signal [6]: 64 fold over background

B10: anti-PSMA heavy chain antibody clone ID 345444 (antibody, V domains shown)
VH: B7 VH with S28T
notes: as for B2
fold over the background MFI signal [6]: 23 fold over background

B11: anti-PSMA heavy chain antibody clone ID 345510 (antibody, V domains shown)
VH: B7 VH with G47W, R58K, L79M
notes: as for B2
fold over the background MFI signal [6]: 13 fold over background

B20: anti-PSMA heavy chain antibody clone ID 326116 (antibody, V domains shown)
VH: B7 VH with S31R, W52S, R58K, N74Y, E107D, Y112D
notes: as for B2
fold over the background MFI signal [6]: 38 fold over background

B21: anti-PSMA heavy chain antibody clone ID 345443 (antibody, V domains shown)
VH: B7 VH with Y80F
notes: as for B2
fold over the background MFI signal [6]: 84 fold over background

B22: anti-PSMA heavy chain antibody clone ID 345509 (antibody, V domains shown)
VH: B7 VH with V11L, R16G, R58K, L79M
notes: as for B2
fold over the background MFI signal [6]: 37 fold over background

B27: anti-PSMA heavy chain antibody clone ID 345493 (antibody, V domains shown)
VH: B7 VH with S31R, G47W
notes: as for B2
fold over the background MFI signal [6]: 101 fold over background

B28: anti-PSMA heavy chain antibody clone ID 345480 (antibody, V domains shown)
VH: B7 VH with G47W
notes: as for B2
fold over the background MFI signal [6]: 47 fold over background

B29: anti-PSMA heavy chain antibody clone ID 326084 (antibody, V domains shown)
VH: B7 VH with E107D
notes: as for B2
fold over the background MFI signal [6]: 125 fold over background

B33: anti-PSMA heavy chain antibody clone ID 345463 (antibody, V domains shown)
VH: B7 VH with S28I, S30R, L45P, G47W, R58K
notes: as for B2
fold over the background MFI signal [6]: 68 fold over background

B36: anti-PSMA heavy chain antibody clone ID 326087 (antibody, V domains shown)
VH: B7 VH with S28I, S30R, L45P, G47W, R58K, E107D, Y112D
notes: as for B2
fold over the background MFI signal [6]: 129 fold over background

Other lines, results leading:

fold over the background MFI signal [6]: 243 fold over background
B4: anti-PSMA heavy chain antibody clone ID 346165 (antibody, V domains shown)
VH: B2 VH with I53V, K66Q
notes: as for B2

fold over the background MFI signal [6]: 138 fold over background
B9: anti-PSMA heavy chain antibody clone ID 326027 (antibody, V domains shown)
VH: B7 VH with S30R, G47W, R58K, E107D, Y112D
notes: as for B2

fold over the background MFI signal [6]: 169 fold over background
B12: anti-PSMA heavy chain antibody clone ID 325940 (antibody, V domains shown)
VH: B7 VH with S28I, S30R, L45P, G47W, R58K
notes: as for B2

fold over the background MFI signal [6]: 55 fold over background
B13: anti-PSMA heavy chain antibody clone ID 345508 (antibody, V domains shown)
VH: B7 VH with L45P, G47W
notes: as for B2

fold over the background MFI signal [6]: 22 fold over background
B14: anti-PSMA heavy chain antibody clone ID 345421 (antibody, V domains shown)
VH: B7 VH with G8V
notes: as for B2

fold over the background MFI signal [6]: 13 fold over background
B15: anti-PSMA heavy chain antibody clone ID 345438 (antibody, V domains shown)
VH: B7 VH with L45P, G47W, R58K
notes: as for B2

fold over the background MFI signal [6]: 200 fold over background
B16: anti-PSMA heavy chain antibody clone ID 325742 (antibody, V domains shown)
VH: B7 VH with G47W, R58K, N74Y, Y112D
notes: as for B2

fold over the background MFI signal [6]: 163 fold over background
B17: anti-PSMA heavy chain antibody clone ID 325836 (antibody, V domains shown)
VH: B7 VH with S30R, G47W, R58K, N74Y, E107D, Y112D
notes: as for B2

fold over the background MFI signal [6]: 117 fold over background
B18: anti-PSMA heavy chain antibody clone ID 326028 (antibody, V domains shown)
VH: B7 VH with S30R, G47W, W52S, R58K, N74Y, E107D, Y112D
notes: as for B2

fold over the background MFI signal [6]: 102 fold over background
B19: anti-PSMA heavy chain antibody clone ID 345461 (antibody, V domains shown)
VH: B7 VH with S30T
notes: as for B2

fold over the background MFI signal [6]: 109 fold over background
B23: anti-PSMA heavy chain antibody clone ID 326029 (antibody, V domains shown)
VH: B7 VH with S31R, G47W, W52S, R58K, I102V, S108T
notes: as for B2

fold over the background MFI signal [6]: 59 fold over background
B24: anti-PSMA heavy chain antibody clone ID 345505 (antibody, V domains shown)
VH: B7 VH with S28T, S30I
notes: as for B2

fold over the background MFI signal [6]: 80 fold over background
B25: anti-PSMA heavy chain antibody clone ID 345482 (antibody, V domains shown)
VH: B7 VH with N74S
notes: as for B2

fold over the background MFI signal [6]: 112 fold over background
B26: anti-PSMA heavy chain antibody clone ID 345497 (antibody, V domains shown)
VH: B7 VH with S31R
notes: heavy chain-only antibody (UniAb), no light chain; also called HCAb 345497

fold over the background MFI signal [6]: 87 fold over background
B30: anti-PSMA heavy chain antibody clone ID 345436 (antibody, V domains shown)
VH: B7 VH with S31R, R58K
notes: as for B2

fold over the background MFI signal [6]: 210 fold over background
B31: anti-PSMA heavy chain antibody clone ID 325867 (antibody, V domains shown)
VH: B7 VH with S30R, G47W, R58K, N74Y, Y112D
notes: heavy chain-only antibody (UniAb), no light chain; also called Antibody 1

fold over the background MFI signal [6]: 80 fold over background
B32: anti-PSMA heavy chain antibody clone ID 345490 (antibody, V domains shown)
VH: B7 VH with V11L, Q13K, R16G
notes: as for B2

fold over the background MFI signal [6]: 71 fold over background
B34: anti-PSMA heavy chain antibody clone ID 345485 (antibody, V domains shown)
VH: B7 VH with S30R, G47W, R58K, L79M
notes: as for B2

fold over the background MFI signal [6]: 14 fold over background
B35: anti-PSMA heavy chain antibody clone ID 345447 (antibody, V domains shown)
VH: B7 VH with W52S
notes: as for B2
